Literature values in publication PMC12455926.

Target: AXL (Homo sapiens) (UniProt P30530)

Substance: Spike protein NTD (from UniProt P0DTC2)
- Kd: 882 nM
